# Measured values reported in US20240261333A1, “NOVEL TARGETS FOR ENHANCING ANTI-TUMOR IMMUNITY” (THE BROAD INSTITUTE, INC., priority 2021, published 2024).
# T1: B3GNT2 (Homo sapiens, UniProt Q9NY97)
# T1 construct: The respective ORFs of candidate genes [CD274 (NM_014143), MCL1 (NM_021960), JUNB (NM_002229), and B3GNT2 (NM_006577)] were synthesized; expressed in transfected cells; host or cells: A375 melanoma cells (lentiviral ORF overexpression)
# T1 sequence (Q9NY97 1-397): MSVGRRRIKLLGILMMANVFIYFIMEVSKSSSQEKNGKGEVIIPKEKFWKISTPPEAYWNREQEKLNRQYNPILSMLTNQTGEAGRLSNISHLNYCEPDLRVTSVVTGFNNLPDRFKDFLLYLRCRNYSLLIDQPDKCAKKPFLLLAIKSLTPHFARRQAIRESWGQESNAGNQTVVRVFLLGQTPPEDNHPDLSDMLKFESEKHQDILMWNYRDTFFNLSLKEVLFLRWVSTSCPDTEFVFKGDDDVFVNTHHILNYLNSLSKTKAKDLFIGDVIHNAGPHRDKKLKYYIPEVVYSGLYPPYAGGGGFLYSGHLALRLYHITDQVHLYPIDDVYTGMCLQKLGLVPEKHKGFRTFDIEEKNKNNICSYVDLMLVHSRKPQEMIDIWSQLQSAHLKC
# B1: ERP44 (protein)
# chain: EITSLDTENIDEILNNADVALVNFYADWCRFSQMLHPIFEEASDVIKEEFPNENQVVFARVDCDQHSDIAQRYRISKYPTLKLFRNGMMMKREYRGQRSVKALADYIRQQKSDPIQEIRDLAEITTLDRSKRNIIGYFEQKDSDNYRVFERVANILHDDCAFLSAFGDVSKPERYSGDNIIYKPPGHSAPDMVYLGAMTNFDVTYNWIQDKCVPLVREITFENGEELTEEGLPFLILFHMKEDTESLEIFQNEVARQLISEKGTINFLHADCDKFRHPLLHIQKTPADCPVIAIDSFRHMYVFGDFKDVLIPGKLKQFVFDLHSGKLHREFHHGPDPTDTAPGEQAQDVASSPPESSFQKLAPSEYRYTLLRDRDEL
# B2: KTN1 (protein)
# chain: MEFYESAYFIVLIPSIVITVIFLFFWLFMKETLYDEVLAKQKREQKLIPTKTDKKKAEKKKNKKKEIQNGNLHESDSESVPRDFKLSDALAVEDDQVAPVPLNVVETSSSVRERKKKEKKQKPVLEEQVIKESDASKIPGKKVEPVPVTKQPTPPSEAAASKKKPGQKKSKNGSDDQDKKVETLMVPSKRQEALPLHQETKQESGSGKKKASSKKQKTENVFVDEPLIHATTYIPLMDNADSSPVVDKREVIDLLKPDQVEGIQKSGTKKLKTETDKENAEVKFKDFLLSLKTMMFSEDEALCVVDLLKEKSGVIQDALKKSSKGELTTLIHQLQEKDKLLAAVKEDAAATKDRCKQLTQEMMTEKERSNVVITRMKDRIGTLEKEHNVFQNKIHVSYQETQQMQMKFQQVREQMEAEIAHLKQENGILRDAVSNTTNQLESKQSAELNKLRQDYARLVNELTEKTGKLQQEEVQKKNAEQAATQLKVQLQEAERRWEEVQSYIRKRTAEHEAAQQDLQSKFVAKENEVQSLHSKLTDTLVSKQQLEQRLMQLMESEQKRVNKEESLQMQVQDILEQNEALKAQIQQFHSQIAAQTSASVLAEELHKVIAEKDKQIKQTEDSLASERDRLTSKEEELKDIQNMNFLLKAEVQKLQALANEQAAAAHELEKMQQSVYVKDDKIRLLEEQLQHEISNKMEEFKILNDQNKALKSEVQKLQTLVSEQPNKDVVEQMEKCIQEKDEKLKTVEELLETGLIQVATKEEELNAIRTENSSLTKEVQDLKAKQNDQVSFASLVEELKKVIHEKDGKIKSVEELLEAELLKVANKEKTVQDLKQEIKALKEEIGNVQLEKAQQLSITSKVQELQNLLKGKEEQMNTMKAVLEEKEKDLANTGKWLQDLQEENESLKAHVQEVAQHNLKEASSASQFEELEIVLKEKENELKRLEAMLKERESDLSSKTQLLQDVQDENKLFKSQIEQLKQQNYQQASSFPPHEELLKVISEREKEISGLWNELDSLKDAVEHQRKKNNDLREKNWEAMEALASTEKMLQDKVNKTSKERQQQVEAVELEAKEVLKKLFPKVSVPSNLSYGEWLHGFEKKAKECMAGTSGSEEVKVLEHKLKEADEMHTLLQLECEKYKSVLAETEGILQKLQRSVEQEENKWKVKVDESHKTIKQMQSSFTSSEQELERLRSENKDIENLRREREHLEMELEKAEMERSTYVTEVRELKDLLTELQKKLDDSYSEAVRQNEELNLLKAQLNETLTKLRTEQNERQKVAGDLHKAQQSLELIQSKIVKAAGDTTVIENSDVSPETESSEKETMSVSLNQTVTQLQQLLQAVNQQLTKEKEHYQVLE
# B3: TRAFD1 (protein)
# chain: AEFLDDQETRLCDNCKKEIPVFNFTIHEIHCQRNIGMCPTCKEPFPKSDMETHMAAEHCQVTCKCNKKLEKRLLKKHEETECPLRLAVCQHCDLELSILKLKEHEDYCGARTELCGNCGRNVLVKDLKTHPEVCGREGEEKRNEVAIPPNAYDESWGQDGIWIASQLLRQIEALDPPMRLPRRPLRAFESDVFHNRTTNQRNITAQVSIQNNLFEEQERQERNRGQQPPKEGGEESANLDFMLALSLQNEGQASSVAEQDFWRAVCEADQSHGGPRSLSDIKGAADEIMLPCEFCEELYPEELLIDHQTSCNPSRALPSLNTGSSSPRGVEEPDVIFQNFLQQAASNQLDSLMGLSNSHPVEESIIIPCEFCGVQLEEEVLFHHQDQCDQRPATATNHVTEGIPRLDSQPQETSPELPRRRVRHQGDLSSGYLDDTKQETANGPTSCLPPSRPINNMTATYNQLSRSTSGPRPGCQPSSPCVPKLSNSDSQDIQGRNRDSQNGAIAPGHVSVIRPPQNLYPENIVPSFSPGPSGRYGASGRSEGGRNSRVTPAAANYRSRTAKAKPSKQQGAGDAEEEEEE
# Biological target: T1, B3GNT2
# Assay: Co-IP of FLAG-tagged B3GNT2 followed by mass spectrometry
# Format: cell-based
# Set-up: C-term IgG / C-term flag: unit not given here
# Details: Co-IP with FLAG antibody, C-terminally FLAG-tagged B3GNT2; mass spectrometry count, unit not given
# In short: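 Co-purifying proteins were identified by fractionated nano-LC–MS/MS on an Orbitrap Elite, run data-dependent. Beforehand, lysates in 1% Triton X-100/HEPES buffer were incubated overnight at 4° C with anti-FLAG or […] and pulled down on Protein A/G magnetic beads for 4 h. Duplicate biological replicates.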
row,Molecule,C-term flag
1,B1,2
2,B2,2
3,B3,2

# Same assay, conditions: Co-IP with FLAG antibody, N-terminally FLAG-tagged B3GNT2; mass spectrometry count, unit not given
row,Molecule,N-term FLAG
1,B1,0
2,B2,0
3,B3,0

# Same assay, conditions: Co-IP with IgG control antibody, C-terminally FLAG-tagged B3GNT2; mass spectrometry count, unit not given
row,Molecule,C-term IgG
1,B1,0
2,B2,0
3,B3,0

# Same assay, conditions: Co-IP with IgG control antibody, N-terminally FLAG-tagged B3GNT2; mass spectrometry count, unit not given
row,Molecule,N-term IgG
1,B1,0
2,B2,0
3,B3,0
